Measurements as given in article PMC3000319 (PLoS ONE, 2010).

Biological target: the molecule itself
Assay: AUC

B1: recombinant ovine PrP (25–233) (natural protein)
chain: not shown
- stoichiometry N: 2
